T1: human BCMA protein (human, UniProt Q02223 1-54)
T1 construct: also called human BCMA expressing NCI-H929 cells; human BCMA overexpressing HEK293 cells
T1 sequence (looked up): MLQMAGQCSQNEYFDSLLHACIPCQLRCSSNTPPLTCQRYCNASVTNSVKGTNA

B1: Ly2949 (BCMA/CD3/CD137) (other)
heavy 1: QVQLVQSGAEVKKPGASVKVSCKASGYTFTNHIIHWVRQAPGQGLEWMGYINPYPGYHAYNEKFQGRATMTSDTSTSTVYMELSSLRSEDTAVYYCARDGYYRDTDVLDYWGQGTLVTVSSASTKGPSVFPLAPSSKSTSGGTAALGCLVKDYFPEPVTVSWNSGALTSGVHTFPAVLQSSGLYSLSSVVTVPSSSLGTQTYICNVNHKPSNTKVDKKVEPKSCGGGGSGGGGSGGGGSGGGGSEVQLVESGGGLVQPGGSLRLSCAASGFTFSTYAMNWVRQAPGKGLEWVGRIRSKYNNYATYYADSVKGRFTISRDDSKNSLYLQMNSLKTEDTAVYYCVRHGNFGNSYVSWFAYWGQGTLVTVSSGGGGSDKTHTCPPCPAPELLGPSVFLFPPKPKDTLMISRTPEVTCVVVDVSHEDPEVKFNWYVDGVEVHNAKTKPREEQYNSTYRVVSVLTVLHQDWLNGKEYKCKVSNKALGAPIEKTISKAKGQPREPQVYTLPPSREEMTKNQVSLWCLVKGFYPSDIAVEWESNGQPENNYKTTPPVLDSDGSFFLYSKLTVDKSRWQQGNVFSCSVMHEALHNHYTQKSLSLSPGKGGGGSGGGGSGGGGSGGGGSQVQLVQSGAEVKKPGASVKVSCKASGYTFAGFEMHWVRQAPGQGLEWMGAIDPKTGGTDYNQKFKDRVTMTRDTSISTAYMELSRLRSDDTAVYYCARDLGYFDVWGQGTLVTVSS
heavy 2: QVQLVQSGAEVKKPGASVKVSCKASGYTFTNHIIHWVRQAPGQGLEWMGYINPYPGYHAYNEKFQGRATMTSDTSTSTVYMELSSLRSEDTAVYYCARDGYYRDTDVLDYWGQGTLVTVSSASTKGPSVFPLAPSSKSTSGGTAALGCLVKDYFPEPVTVSWNSGALTSGVHTFPAVLQSSGLYSLSSVVTVPSSSLGTQTYICNVNHKPSNTKVDKKVEPKSCGGGGSGGGGSGGGGSGGGGSQAVVTQEPSLTVSPGGTVTLTCRSSTGAVTTSNYANWVQQKPGQAPRGLIGGTNKRAPWTPARFSGSLLGGKAALTITGAQAEDEADYYCALWYSNLWVFGGGTKLTVLGGGGSDKTHTCPPCPAPELLGPSVFLFPPKPKDTLMISRTPEVTCVVVDVSHEDPEVKFNWYVDGVEVHNAKTKPREEQYNSTYRVVSVLTVLHQDWLNGKEYKCKVSNKALGAPIEKTISKAKGQPREPQVYTLPPSREEMTKNQVSLSCAVKGFYPSDIAVEWESNGQPENNYKTTPPVLDSDGSFFLVSKLTVDKSRWQQGNVFSCSVMHEALHNRFTQKSLSLSPGKGGGGSGGGGSGGGGSGGGGSDIQMTQSPSSLSASVGDRVTITCRASQDIRSNLNWYQQKPGGAVKLLIYYTSRLHSGVPSRFSGSGSGTDYTLTISSLQPEDFATYFCQQSEKLPRTFGGGTKVEIR
light: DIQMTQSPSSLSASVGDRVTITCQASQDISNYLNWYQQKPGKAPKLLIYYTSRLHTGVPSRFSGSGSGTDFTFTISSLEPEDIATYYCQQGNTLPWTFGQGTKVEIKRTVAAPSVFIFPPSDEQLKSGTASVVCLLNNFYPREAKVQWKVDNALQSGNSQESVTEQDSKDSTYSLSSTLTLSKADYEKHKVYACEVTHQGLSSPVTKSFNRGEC
notes: Multi-specific (tri-specific) antibody with three different chains HC1, HC2, LC1; also called BCMA(a) /CD3 /CD137; anti-BCMA/CD3/CD137 multi-specific antibody
B2: Ly3096 (BCMA/CD3/CD137) (other)
heavy 1: QLQLQESGPGLVKPSETLSLTCTVSGGSISSGSYFWGWIRQPPGKGLEWIGSIYYSGITYYNPSLKSRVTISVDTSKNQFSLKLSSVTAADTAVYYCARHDGAVAGLFDYWGQGTLVTVSSASTKGPSVFPLAPSSKSTSGGTAALGCLVKDYFPEPVTVSWNSGALTSGVHTFPAVLQSSGLYSLSSVVTVPSSSLGTQTYICNVNHKPSNTKVDKKVEPKSCGGGGSGGGGSGGGGSGGGGSEVQLVESGGGLVQPGGSLRLSCAASGFTFSTYAMNWVRQAPGKGLEWVGRIRSKYNNYATYYADSVKGRFTISRDDSKNSLYLQMNSLKTEDTAVYYCVRHGNFGNSYVSWFAYWGQGTLVTVSSGGGGSDKTHTCPPCPAPELLGPSVFLFPPKPKDTLMISRTPEVTCVVVDVSHEDPEVKFNWYVDGVEVHNAKTKPREEQYNSTYRVVSVLTVLHQDWLNGKEYKCKVSNKALGAPIEKTISKAKGQPREPQVYTLPPSREEMTKNQVSLWCLVKGFYPSDIAVEWESNGQPENNYKTTPPVLDSDGSFFLYSKLTVDKSRWQQGNVFSCSVMHEALHNHYTQKSLSLSPGKGGGGSGGGGSGGGGSGGGGSQVQLVQSGAEVKKPGASVKVSCKASGYTFAGFEMHWVRQAPGQGLEWMGAIDPKTGGTDYNQKFKDRVTMTRDTSISTAYMELSRLRSDDTAVYYCARDLGYFDVWGQGTLVTVSS
heavy 2: QLQLQESGPGLVKPSETLSLTCTVSGGSISSGSYFWGWIRQPPGKGLEWIGSIYYSGITYYNPSLKSRVTISVDTSKNQFSLKLSSVTAADTAVYYCARHDGAVAGLFDYWGQGTLVTVSSASTKGPSVFPLAPSSKSTSGGTAALGCLVKDYFPEPVTVSWNSGALTSGVHTFPAVLQSSGLYSLSSVVTVPSSSLGTQTYICNVNHKPSNTKVDKKVEPKSCGGGGSGGGGSGGGGSGGGGSQAVVTQEPSLTVSPGGTVTLTCRSSTGAVTTSNYANWVQQKPGQAPRGLIGGTNKRAPWTPARFSGSLLGGKAALTITGAQAEDEADYYCALWYSNLWVFGGGTKLTVLGGGGSDKTHTCPPCPAPELLGPSVFLFPPKPKDTLMISRTPEVTCVVVDVSHEDPEVKFNWYVDGVEVHNAKTKPREEQYNSTYRVVSVLTVLHQDWLNGKEYKCKVSNKALGAPIEKTISKAKGQPREPQVYTLPPSREEMTKNQVSLSCAVKGFYPSDIAVEWESNGQPENNYKTTPPVLDSDGSFFLVSKLTVDKSRWQQGNVFSCSVMHEALHNRFTQKSLSLSPGKGGGGSGGGGSGGGGSGGGGSDIQMTQSPSSLSASVGDRVTITCRASQDIRSNLNWYQQKPGGAVKLLIYYTSRLHSGVPSRFSGSGSGTDYTLTISSLQPEDFATYFCQQSEKLPRTFGGGTKVEIR
light: SYVLTQPPSVSVAPGQTARITCGGNNIGSKSVHWYQQPPGQAPVVVVYDDSDRPSGIPERFSGSNSGNTATLTISRVEAGDEAVYYCQVWDSSSDHVVFGGGTKLTVLGQPKAAPSVTLFPPSSEELQANKATLVCLISDFYPGAVTVAWKGDSSPVKAGVETTTPSKQSNNKYAASSYLSLTPEQWKSHRSYSCQVTHEGSTVEKTVAPTECS
notes: Multi-specific (tri-specific) antibody with three different chains HC1, HC2, LC1; also called BCMA(b) /CD3 /CD137
B3: Ly3106 (BCMA/CD3/PD-L1) (other)
heavy 1: QLQLQESGPGLVKPSETLSLTCTVSGGSISSGSYFWGWIRQPPGKGLEWIGSIYYSGITYYNPSLKSRVTISVDTSKNQFSLKLSSVTAADTAVYYCARHDGAVAGLFDYWGQGTLVTVSSASTKGPSVFPLAPSSKSTSGGTAALGCLVKDYFPEPVTVSWNSGALTSGVHTFPAVLQSSGLYSLSSVVTVPSSSLGTQTYICNVNHKPSNTKVDKKVEPKSCGGGGSGGGGSGGGGSGGGGSEVQLVESGGGLVQPGGSLRLSCAASGFTFSTYAMNWVRQAPGKGLEWVGRIRSKYNNYATYYADSVKGRFTISRDDSKNSLYLQMNSLKTEDTAVYYCVRHGNFGNSYVSWFAYWGQGTLVTVSSGGGGSDKTHTCPPCPAPELLGPSVFLFPPKPKDTLMISRTPEVTCVVVDVSHEDPEVKFNWYVDGVEVHNAKTKPREEQYNSTYRVVSVLTVLHQDWLNGKEYKCKVSNKALGAPIEKTISKAKGQPREPQVYTLPPSREEMTKNQVSLWCLVKGFYPSDIAVEWESNGQPENNYKTTPPVLDSDGSFFLYSKLTVDKSRWQQGNVFSCSVMHEALHNHYTQKSLSLSPGKGGGGSGGGGSGGGGSGGGGSQVQLVQSGAEVKKPGASVKVSCKASGYTFTDFWMSWVRQAPGQGLEWMGQIYPNTGTTHSNEKFKGRVTMTRDTSTSTVYMELSSLRSEDTAVYYCARSYHISTTPNWFAYWGQGTLVTVSS
heavy 2: QLQLQESGPGLVKPSETLSLTCTVSGGSISSGSYFWGWIRQPPGKGLEWIGSIYYSGITYYNPSLKSRVTISVDTSKNQFSLKLSSVTAADTAVYYCARHDGAVAGLFDYWGQGTLVTVSSASTKGPSVFPLAPSSKSTSGGTAALGCLVKDYFPEPVTVSWNSGALTSGVHTFPAVLQSSGLYSLSSVVTVPSSSLGTQTYICNVNHKPSNTKVDKKVEPKSCGGGGSGGGGSGGGGSGGGGSQAVVTQEPSLTVSPGGTVTLTCRSSTGAVTTSNYANWVQQKPGQAPRGLIGGTNKRAPWTPARFSGSLLGGKAALTITGAQAEDEADYYCALWYSNLWVFGGGTKLTVLGGGGSDKTHTCPPCPAPELLGPSVFLFPPKPKDTLMISRTPEVTCVVVDVSHEDPEVKFNWYVDGVEVHNAKTKPREEQYNSTYRVVSVLTVLHQDWLNGKEYKCKVSNKALGAPIEKTISKAKGQPREPQVYTLPPSREEMTKNQVSLSCAVKGFYPSDIAVEWESNGQPENNYKTTPPVLDSDGSFFLVSKLTVDKSRWQQGNVFSCSVMHEALHNRFTQKSLSLSPGKGGGGSGGGGSGGGGSGGGGSDIQMTQSPSSLSASVGDRVTITCKASQNVYKKLEWYQQKPGKVPKVLIYHTNILQTGVPSRFSGSGSGTDYTLTISSLQPEDVATYYCYQWNSGPTFGGGTKVEIK
light: B2 light
notes: Multi-specific (tri-specific) antibody with three different chains HC1, HC2, LC1; also called BCMA(b) /CD3 /PD-L1

Legend:
Experiment in all cases: FCM or ELISA, graded summary
[1] = target: T2, human CD3D/E protein (human, UniProt P04234 22-105; P07766 23-126)
T2 construct: also called human CD3 expressing Jurkat cells

[2] = target: T3, human CD137 protein (human, UniProt Q07011 24-186)
T3 construct: also called human CD137 expressing CHO cells

[3] = target: T1, human BCMA protein
[4] = target: human PD-L1 protein (human, UniProt Q9NZQ7 19-238)
Sequence of human PD-L1 protein (Q9NZQ7 19-238 limits assumed): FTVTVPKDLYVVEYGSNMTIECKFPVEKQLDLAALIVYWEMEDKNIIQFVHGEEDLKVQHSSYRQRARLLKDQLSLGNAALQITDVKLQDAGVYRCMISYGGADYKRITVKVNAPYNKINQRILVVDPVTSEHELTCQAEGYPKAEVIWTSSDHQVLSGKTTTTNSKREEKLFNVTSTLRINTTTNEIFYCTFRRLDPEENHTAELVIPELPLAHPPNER

T2 sequence (P04234 22-105, chain 1 of 2): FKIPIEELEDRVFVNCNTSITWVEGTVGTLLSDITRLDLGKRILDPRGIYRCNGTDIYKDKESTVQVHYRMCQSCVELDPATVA
T2 sequence (P07766 23-126, chain 2 of 2): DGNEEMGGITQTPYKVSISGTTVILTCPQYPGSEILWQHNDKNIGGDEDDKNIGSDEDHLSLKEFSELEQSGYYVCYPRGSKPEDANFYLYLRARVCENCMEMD
T3 sequence (Q07011 24-186 limits assumed): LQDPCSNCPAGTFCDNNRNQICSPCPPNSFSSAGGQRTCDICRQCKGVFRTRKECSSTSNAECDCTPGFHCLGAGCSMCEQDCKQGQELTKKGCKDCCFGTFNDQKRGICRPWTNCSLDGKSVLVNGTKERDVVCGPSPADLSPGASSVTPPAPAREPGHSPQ

| Binder | binding result [1] | binding result [2] | binding result [3] | binding result [4] |
| --- | --- | --- | --- | --- |
| B1 | binds | binds | binds | – |
| B2 | binds | binds | – | – |
| B3 | binds | – | – | binds |
